Measurements from PMC11418127, “Structures of LIG1 uncover the mechanism of sugar discrimination against 5′-RNA-DNA junctions during ribonucleotide excision repair”.

Legend:
[1] = biological target: LIG1 EE/AA (C-terminal, Δ261) (UniProt P18858 262-919, E346A;E592A); test: X-ray crystallography; AMP covalently bound to K568 (step 1); 1 mM ATP, 1 mM EDTA; Crystallization: 20 mM Tris-HCl pH 7.0, 200 mM NaCl, 1 mM DTT, 1 mM EDTA, 1 mM ATP, LIG1 27 mg/ml, DNA:protein 1.4:1, hanging drop at 20 °C; details: protein: recombinant; tags: 6xHis; nicked duplex: 18-nt template, 11-nt upstream, 7-nt downstream; blunt outer ends
[2] = biological target: LIG1 WT (C-terminal, Δ261) (UniProt P18858 262-919); test: as above; details: protein: recombinant; tags: 6xHis; nicked duplex: 18-nt template, 11-nt upstream, 7-nt downstream; blunt outer ends
LIG1 WT (C-terminal, Δ261), sequence (P18858 262-919, stated change not applied): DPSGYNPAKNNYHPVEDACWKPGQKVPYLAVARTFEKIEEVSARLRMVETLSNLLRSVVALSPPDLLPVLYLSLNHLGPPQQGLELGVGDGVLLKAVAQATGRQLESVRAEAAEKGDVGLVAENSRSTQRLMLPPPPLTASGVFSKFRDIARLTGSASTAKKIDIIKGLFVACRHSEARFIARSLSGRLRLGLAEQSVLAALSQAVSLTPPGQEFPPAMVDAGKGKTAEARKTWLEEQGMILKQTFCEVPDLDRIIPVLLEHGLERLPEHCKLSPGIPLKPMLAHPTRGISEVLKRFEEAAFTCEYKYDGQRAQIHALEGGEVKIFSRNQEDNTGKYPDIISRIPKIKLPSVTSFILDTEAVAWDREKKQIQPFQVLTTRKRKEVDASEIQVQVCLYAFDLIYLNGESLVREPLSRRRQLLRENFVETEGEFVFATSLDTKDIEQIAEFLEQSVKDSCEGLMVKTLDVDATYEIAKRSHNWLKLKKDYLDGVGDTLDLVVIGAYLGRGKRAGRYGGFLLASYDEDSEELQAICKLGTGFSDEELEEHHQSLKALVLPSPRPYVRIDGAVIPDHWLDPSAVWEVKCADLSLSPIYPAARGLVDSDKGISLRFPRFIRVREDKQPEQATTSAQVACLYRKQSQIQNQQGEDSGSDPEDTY

LIG1 EE/AA (C-terminal, Δ261), sequence (P18858 262-919 E346A/E592A): as the sequence (P18858 262-919, stated change not applied) above, with E85A, E331A counted along it

B1: nick DNA 5'-rG:C (mixed)
DNA 1: GTCCGACCACGCATCAGC
DNA 2: GCTGATGCGTG
DNA 3: GTCGGAC
modifications: ribonucleotide rG at position 1 of downstream strand (strand 3); 5'-phosphate on strand 3
B1: binds [1]; binds [2].
